Data reported in patent publication US20180371086A1 (Gilead, published 2018).

Legend:
Human FcRn = molecular target: T1, Human FcRn (human, UniProt P55899 24-297; P61769 21-119); assay: ELISA, FcRn coated on plate; ratio of EC50 at pH 7.0 to pH 6.0
T1 construct: also called neonatal Fc receptor
Experimental: The binding of antibodies to FcRn of various antibody variants at different pHs was determined. A 96-well Maxisorp plate was coated with 100 ul of 5 μg/ml FcRn. The plate was incubated overnight at 4° C., and then blocked with 4% skim milk for 2 hr at room temperature after washing 3 times with 0.05% Tween 20 washing buffer. […] The plate was then washed 3 times and 100 μL of Fab-anti-human Fab-HRP or Goat anti-human IgG-HRP secondary antibody diluted in 4% skimmed milk was added. Plates were then incubated 50 min at room temperature, washed three times, and 100 μL fresh TMB substrate was added. Plates were developed for 3 minutes on bench with gentle shaking. Plate was quenched with 100 μL 1M HCl, shaken briefly, read at A450 on a spectramax m5 plate reader.

[1] = molecular target: HIV-1 Env of virus MGRM-F1-014 (HIV-1); assay: cell-based or functional assay
[2] = molecular target: HIV-1 Env of virus MGRM-C-018 (HIV-1); assay: cell-based or functional assay
[3] = molecular target: HIV-1 Env of virus MGRM-Chronic-B-004 (HIV-1); assay: cell-based or functional assay
[4] = molecular target: HIV-1 Env of virus MGRM-C-013 (HIV-1); assay: cell-based or functional assay
[5] = molecular target: HIV-1 Env of virus MGRM-A-010 (HIV-1); assay: cell-based or functional assay
[6] = molecular target: HIV-1 Env of virus MGRM-Chronic-B-023 (HIV-1); assay: cell-based or functional assay
[7] = molecular target: HIV-1 Env of virus MGRM-C-023 (HIV-1); assay: cell-based or functional assay
[8] = molecular target: HIV-1 Env of virus MGRM-Chronic-B-014 (HIV-1); assay: cell-based or functional assay
[9] = molecular target: HIV-1 Env of virus MGRM-A-009 (HIV-1); assay: cell-based or functional assay
[10] = molecular target: HIV-1 Env of virus MGRM-F1-006 (HIV-1); assay: cell-based or functional assay
[11] = molecular target: HIV-1 Env of virus MGRM-Acute-B-003 (HIV-1); assay: cell-based or functional assay
[12] = molecular target: HIV-1 Env of virus MGRM-Chronic-B-009 (HIV-1); assay: cell-based or functional assay
[13] = molecular target: HIV-1 Env of virus MGRM-F1-013 (HIV-1); assay: cell-based or functional assay
[14] = molecular target: HIV-1 Env of virus MGRM-C-020 (HIV-1); assay: cell-based or functional assay
[15] = molecular target: HIV-1 Env of virus MGRM-C-024 (HIV-1); assay: cell-based or functional assay
[16] = molecular target: HIV-1 Env of virus MGRM-C-007 (HIV-1); assay: cell-based or functional assay
[17] = molecular target: HIV-1 Env of virus MGRM-G-004 (HIV-1); assay: cell-based or functional assay
[18] = molecular target: HIV-1 Env of virus MGRM-C-005 (HIV-1); assay: cell-based or functional assay
[19] = molecular target: HIV-1 Env of virus MGRM-C-028 (HIV-1); assay: cell-based or functional assay
[20] = molecular target: HIV-1 Env of virus MGRM-Chronic-B-003 (HIV-1); assay: cell-based or functional assay
[21] = molecular target: HIV-1 Env of virus MGRM-C-006 (HIV-1); assay: cell-based or functional assay
[22] = molecular target: HIV-1 Env of virus MGRM-Chronic-B-010 (HIV-1); assay: cell-based or functional assay
[23] = molecular target: HIV-1 Env of virus MGRM-Chronic-B-002 (HIV-1); assay: cell-based or functional assay
[24] = molecular target: HIV-1 Env of virus MGRM-A-012 (HIV-1); assay: cell-based or functional assay
[25] = molecular target: HIV-1 Env of virus MGRM-D-011 (HIV-1); assay: cell-based or functional assay
[26] = molecular target: HIV-1 Env of virus MGRM-AG-009 (HIV-1); assay: cell-based or functional assay
[27] = molecular target: HIV-1 Env of virus MGRM-Acute-B-010 (HIV-1); assay: cell-based or functional assay
[28] = molecular target: HIV-1 Env of virus MGRM-C-002 (HIV-1); assay: cell-based or functional assay
[29] = molecular target: HIV-1 Env of virus MGRM-Acute-B-009 (HIV-1); assay: cell-based or functional assay
[30] = molecular target: HIV-1 Env of virus MGRM-F1-015 (HIV-1); assay: cell-based or functional assay
[31] = molecular target: HIV-1 Env of virus MGRM-A-013 (HIV-1); assay: cell-based or functional assay
[32] = molecular target: HIV-1 Env of virus MGRM-AG-001 (HIV-1); assay: cell-based or functional assay
[33] = molecular target: HIV-1 Env of virus MGRM-AG-005 (HIV-1); assay: cell-based or functional assay
[34] = molecular target: HIV-1 Env of virus MGRM-F1-020 (HIV-1); assay: cell-based or functional assay
[35] = molecular target: HIV-1 Env of virus MGRM-AG-008 (HIV-1); assay: cell-based or functional assay
[36] = molecular target: HIV-1 Env of virus MGRM-Chronic-B-020 (HIV-1); assay: cell-based or functional assay
[37] = molecular target: HIV-1 Env of virus MGRM-G-017 (HIV-1); assay: cell-based or functional assay
[38] = molecular target: HIV-1 Env of virus MGRM-Chronic-B-012 (HIV-1); assay: cell-based or functional assay
[39] = molecular target: HIV-1 Env of virus MGRM-C-027 (HIV-1); assay: cell-based or functional assay
[40] = molecular target: HIV-1 Env of virus MGRM-C-016 (HIV-1); assay: cell-based or functional assay

T1 sequence (P55899 24-297 limits assumed, chain 1 of 2): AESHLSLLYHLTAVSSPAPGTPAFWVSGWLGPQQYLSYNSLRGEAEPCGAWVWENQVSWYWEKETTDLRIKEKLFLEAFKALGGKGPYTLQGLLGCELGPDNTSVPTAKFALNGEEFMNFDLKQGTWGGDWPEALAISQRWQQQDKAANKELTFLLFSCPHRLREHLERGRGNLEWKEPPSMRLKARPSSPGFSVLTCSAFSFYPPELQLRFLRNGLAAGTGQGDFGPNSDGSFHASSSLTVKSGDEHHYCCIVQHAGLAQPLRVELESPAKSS
T1 sequence (P61769 21-119 limits assumed, chain 2 of 2): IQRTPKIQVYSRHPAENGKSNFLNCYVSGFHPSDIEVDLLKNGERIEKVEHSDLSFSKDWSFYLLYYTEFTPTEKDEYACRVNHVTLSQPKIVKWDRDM

B1: PGT121.60 hIgG1/hLambda (antibody)
heavy: QMQLQESGPGLVKPSETLSLTCSVSGASISDSYWSWIRRSPGKGLEWIGYVHKSGDTNYNPSLKSRVHLSLDTSKNQVSLSLTGVTAADSGKYYCARTLHGRRIYGIVAFNEWFTYFYMDVWGTGTQVTVSSASTKGPSVFPLAPSSKSTSGGTAALGCLVKDYFPEPVTVSWNSGALTSGVHTFPAVLQSSGLYSLSSVVTVPSSSLGTQTYICNVNHKPSNTKVDKKVEPKSCDKTHTCPPCPAPELLAGPDVFLFPPKPKDTLMISRTPEVTCVVVDVSHEDPEVKFNWYVDGVEVHNAKTKPREEQYNSTYRVVSVLTVLHQDWLNGKEYKCKVSNKALPLPEEKTISKAKGQPREPQVYTLPPSREEMTKNQVSLTCLVKGFYPSDIAVEWESNGQPENNYKTTPPVLDSDGSFFLYSKLTVDKSRWQQGNVFSCSVLHEALHSHYTQKSLSLSPGK
light: not shown
Ratio pH 7.0/6.0 (Human FcRn): 355 | PGT121.60 IC50 [1]: 0.0509 µg/mL | PGT121.60 IC50 [2]: 10.3 µg/mL | PGT121.60 IC50 [3]: 0.0013 µg/mL | PGT121.60 IC50 [4]: 12.3 µg/mL | PGT121.60 IC50 [5]: 0.745 µg/mL | PGT121.60 IC50 [6]: 0.0034 µg/mL | PGT121.60 IC50 [7]: 0.0044 µg/mL | PGT121.60 IC50 [8]: 0.133 µg/mL | PGT121.60 IC50 [9]: 0.0074 µg/mL | PGT121.60 IC50 [10]: 2.33 µg/mL | PGT121.60 IC50 [11]: 0.0179 µg/mL | PGT121.60 IC50 [12]: 0.0112 µg/mL | PGT121.60 IC50 [13]: 0.0871 µg/mL | PGT121.60 IC50 [14]: 14.9 µg/mL | PGT121.60 IC50 [15]: 0.0826 µg/mL | PGT121.60 IC50 [16]: 0.199 µg/mL | PGT121.60 IC50 [17]: 0.046 µg/mL | PGT121.60 IC50 [18]: 0.0078 µg/mL | PGT121.60 IC50 [19]: 0.744 µg/mL | PGT121.60 IC50 [20]: 0.0079 µg/mL | PGT121.60 IC50 [21]: 0.003 µg/mL | PGT121.60 IC50 [22]: 0.0074 µg/mL | PGT121.60 IC50 [23]: 0.0649 µg/mL | PGT121.60 IC50 [24]: 0.0397 µg/mL | PGT121.60 IC50 [25]: 0.0043 µg/mL | PGT121.60 IC50 [26]: 0.0868 µg/mL | PGT121.60 IC50 [27]: 0.0328 µg/mL | PGT121.60 IC50 [28]: 0.0095 µg/mL | PGT121.60 IC50 [29]: 0.0016 µg/mL | PGT121.60 IC50 [30]: 11.6 µg/mL | PGT121.60 IC50 [31]: 0.0561 µg/mL | PGT121.60 IC50 [32]: 1.44 µg/mL | PGT121.60 IC50 [33]: 0.203 µg/mL | PGT121.60 IC50 [34]: 0.041 µg/mL | PGT121.60 IC50 [35]: 1.71 µg/mL | PGT121.60 IC50 [36]: 0.0018 µg/mL | PGT121.60 IC50 [37]: 0.0255 µg/mL | PGT121.60 IC50 [38]: 0.0409 µg/mL | PGT121.60 IC50 [39]: 0.0038 µg/mL | PGT121.60 IC50 [40]: 0.0137 µg/mL
